Data on ten molecules can be found in patent publication US20250084142A1 (INTARCIA THERAPEUTICS, published 2025).

One test has as its target T1, NPY2R.
T1 sequence (P49146 1-381, species assumed, looked up): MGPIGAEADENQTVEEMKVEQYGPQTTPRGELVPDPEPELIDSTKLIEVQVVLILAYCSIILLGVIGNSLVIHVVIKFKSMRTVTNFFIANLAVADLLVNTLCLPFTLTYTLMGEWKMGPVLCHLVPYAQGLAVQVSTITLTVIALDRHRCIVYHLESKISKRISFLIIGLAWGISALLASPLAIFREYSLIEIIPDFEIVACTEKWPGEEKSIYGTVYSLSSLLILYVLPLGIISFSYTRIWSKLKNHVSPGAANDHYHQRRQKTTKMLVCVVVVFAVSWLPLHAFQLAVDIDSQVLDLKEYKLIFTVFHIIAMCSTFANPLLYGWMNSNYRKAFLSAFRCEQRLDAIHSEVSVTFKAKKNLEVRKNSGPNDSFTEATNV
Put plainly: cell-based or functional assay.

A further test addresses T2, NPY5R.
T2 sequence (Q15761 1-445, species assumed, looked up): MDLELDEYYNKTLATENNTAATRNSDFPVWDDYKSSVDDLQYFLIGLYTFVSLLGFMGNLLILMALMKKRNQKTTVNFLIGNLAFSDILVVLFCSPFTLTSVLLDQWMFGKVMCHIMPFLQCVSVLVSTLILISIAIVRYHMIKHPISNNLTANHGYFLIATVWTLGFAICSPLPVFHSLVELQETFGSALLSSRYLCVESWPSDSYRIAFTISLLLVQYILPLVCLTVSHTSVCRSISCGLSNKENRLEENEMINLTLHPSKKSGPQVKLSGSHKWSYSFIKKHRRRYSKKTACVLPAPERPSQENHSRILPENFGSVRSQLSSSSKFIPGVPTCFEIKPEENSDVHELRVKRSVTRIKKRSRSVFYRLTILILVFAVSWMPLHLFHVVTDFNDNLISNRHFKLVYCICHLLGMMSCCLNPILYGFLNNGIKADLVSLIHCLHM
Put plainly: cell-based or functional assay.

Starred links: 1 amine or outer side, 2 acyl side, 3 side chain; linkers in the order of their positions; H or OH if unused. Positions of bridges follow the written chain, without caps; N, C: chain ends. Non-standard residues stand in square brackets, D forms with d. Groups on a side chain read outwards from the residue. No end group written: not given here. *: point of attachment. Phe(4-COOH) = N[C@@H](Cc1ccc(C(=O)O)cc1)C(=O)O; C20 diacid = O=C(O)CCCCCCCCCCCCCCCCCCC(=O)*; C19 diacid = O=C(O)CCCCCCCCCCCCCCCCCC(=O)*; C18 diacid = O=C(O)CCCCCCCCCCCCCCCCC(=O)*; γGlu = O=C(O)[C@H](CCC(=O)[*:2])N[*:1]

B1: Compound A37 (peptide)
peptide: PKPEK([γGlu-γGlu-C20 diacid])PGKDASPKEWNRYYKDLRHYLNWLTRQRF-NH2
modifications: N-terminus assumed
SMILES: CC(C)C[C@H](NC(=O)[C@H](CC(=O)O)NC(=O)[C@H](CCCCN)NC(=O)[C@H](Cc1ccc(O)cc1)NC(=O)[C@H](Cc1ccc(O)cc1)NC(=O)[C@H](CCCNC(=N)N)NC(=O)[C@H](CC(N)=O)NC(=O)[C@H](Cc1c[nH]c2ccccc12)NC(=O)[C@H](CCC(=O)O)NC(=O)[C@H](CCCCN)NC(=O)[C@@H]1CCCN1C(=O)[C@H](CO)NC(=O)[C@H](C)NC(=O)[C@H](CC(=O)O)NC(=O)[C@H](CCCCN)NC(=O)CNC(=O)[C@@H]1CCCN1C(=O)[C@H](CCCCNC(=O)CC[C@H](NC(=O)CC[C@H](NC(=O)CCCCCCCCCCCCCCCCCCC(=O)O)C(=O)O)C(=O)O)NC(=O)[C@H](CCC(=O)O)NC(=O)[C@@H]1CCCN1C(=O)[C@H](CCCCN)NC(=O)[C@@H]1CCCN1)C(=O)N[C@@H](CCCNC(=N)N)C(=O)N[C@@H](Cc1c[nH]cn1)C(=O)N[C@@H](Cc1ccc(O)cc1)C(=O)N[C@@H](CC(C)C)C(=O)N[C@@H](CC(N)=O)C(=O)N[C@@H](Cc1c[nH]c2ccccc12)C(=O)N[C@@H](CC(C)C)C(=O)N[C@H](C(=O)N[C@@H](CCCNC(=N)N)C(=O)N[C@@H](CCC(N)=O)C(=O)N[C@@H](CCCNC(=N)N)C(=O)N[C@@H](Cc1ccccc1)C(N)=O)[C@@H](C)O
For the molecule B1, the “NPY2R pEC50” value with NPY2R is 10.8 -Log(EC50, M). The “NPY5R pEC50” value with NPY5R was 8.6 -Log(EC50, M).
In the case of PKPEAPGK([γGlu-γGlu-C20 diacid])DASPEEWDRYYKDLRHYLNWLTRQRF-NH2 (lactam 16-20) [Compound A42], in the test with NPY2R, the “NPY2R pEC50” value is 10.3 -Log(EC50, M). Also, the “NPY5R pEC50” value in the test with NPY5R was 9.1 -Log(EC50, M).
Turning to PKPEAPGK([γGlu-γGlu-C20 diacid])DASPEEWKRYYDDLRHYLNWLTRQRF-NH2 (lactam 16-20) [Compound A44], the “NPY2R pEC50” value with NPY2R was 9.7 -Log(EC50, M). In addition, the “NPY5R pEC50” value with NPY5R is 9.2 -Log(EC50, M).

B2: Compound A40 (peptide)
peptide: PKPEKPGK([γGlu-γGlu-C19 diacid])DASPKEWDRYYKDLRHYLNWLTRQRF-NH2
modifications: lactam 16-20; N-terminus assumed
SMILES: CC(C)C[C@H](NC(=O)[C@H](CC(=O)O)NC(=O)[C@@H]1CCCCNC(=O)C[C@H](NC(=O)[C@H](Cc2c[nH]c3ccccc23)NC(=O)[C@H](CCC(=O)O)NC(=O)[C@H](CCCCN)NC(=O)[C@@H]2CCCN2C(=O)[C@H](CO)NC(=O)[C@H](C)NC(=O)[C@H](CC(=O)O)NC(=O)[C@H](CCCCNC(=O)CC[C@H](NC(=O)CC[C@H](NC(=O)CCCCCCCCCCCCCCCCCC(=O)O)C(=O)O)C(=O)O)NC(=O)CNC(=O)[C@@H]2CCCN2C(=O)[C@H](CCCCN)NC(=O)[C@H](CCC(=O)O)NC(=O)[C@@H]2CCCN2C(=O)[C@H](CCCCN)NC(=O)[C@@H]2CCCN2)C(=O)N[C@@H](CCCNC(=N)N)C(=O)N[C@@H](Cc2ccc(O)cc2)C(=O)N[C@@H](Cc2ccc(O)cc2)C(=O)N1)C(=O)N[C@@H](CCCNC(=N)N)C(=O)N[C@@H](Cc1c[nH]cn1)C(=O)N[C@@H](Cc1ccc(O)cc1)C(=O)N[C@@H](CC(C)C)C(=O)N[C@@H](CC(N)=O)C(=O)N[C@@H](Cc1c[nH]c2ccccc12)C(=O)N[C@@H](CC(C)C)C(=O)N[C@H](C(=O)N[C@@H](CCCNC(=N)N)C(=O)N[C@@H](CCC(N)=O)C(=O)N[C@@H](CCCNC(=N)N)C(=O)N[C@@H](Cc1ccccc1)C(N)=O)[C@@H](C)O
On to B2, for which the “NPY5R pEC50” value in the test with NPY5R was 9 -Log(EC50, M).

B3: Compound A75 (peptide)
peptide: PKPEKPGK([γGlu-γGlu-C20 diacid])DASPEEWSRYYKDLRHYLNWLTRQRF-NH2
modifications: N-terminus assumed
SMILES: CC(C)C[C@H](NC(=O)[C@H](CC(=O)O)NC(=O)[C@H](CCCCN)NC(=O)[C@H](Cc1ccc(O)cc1)NC(=O)[C@H](Cc1ccc(O)cc1)NC(=O)[C@H](CCCNC(=N)N)NC(=O)[C@H](CO)NC(=O)[C@H](Cc1c[nH]c2ccccc12)NC(=O)[C@H](CCC(=O)O)NC(=O)[C@H](CCC(=O)O)NC(=O)[C@@H]1CCCN1C(=O)[C@H](CO)NC(=O)[C@H](C)NC(=O)[C@H](CC(=O)O)NC(=O)[C@H](CCCCNC(=O)CC[C@H](NC(=O)CC[C@H](NC(=O)CCCCCCCCCCCCCCCCCCC(=O)O)C(=O)O)C(=O)O)NC(=O)CNC(=O)[C@@H]1CCCN1C(=O)[C@H](CCCCN)NC(=O)[C@H](CCC(=O)O)NC(=O)[C@@H]1CCCN1C(=O)[C@H](CCCCN)NC(=O)[C@@H]1CCCN1)C(=O)N[C@@H](CCCNC(=N)N)C(=O)N[C@@H](Cc1c[nH]cn1)C(=O)N[C@@H](Cc1ccc(O)cc1)C(=O)N[C@@H](CC(C)C)C(=O)N[C@@H](CC(N)=O)C(=O)N[C@@H](Cc1c[nH]c2ccccc12)C(=O)N[C@@H](CC(C)C)C(=O)N[C@H](C(=O)N[C@@H](CCCNC(=N)N)C(=O)N[C@@H](CCC(N)=O)C(=O)N[C@@H](CCCNC(=N)N)C(=O)N[C@@H](Cc1ccccc1)C(N)=O)[C@@H](C)O
As to B3, the “NPY5R pEC50” value with NPY5R is 9.3 -Log(EC50, M).

B4: Compound A38 (peptide)
peptide: PKPEK([γGlu-γGlu-C18 diacid])PGEDASPKEWNRYYKDLRHYLNWLTRQRF-NH2
modifications: N-terminus assumed
SMILES: CC(C)C[C@H](NC(=O)[C@H](CC(=O)O)NC(=O)[C@H](CCCCN)NC(=O)[C@H](Cc1ccc(O)cc1)NC(=O)[C@H](Cc1ccc(O)cc1)NC(=O)[C@H](CCCNC(=N)N)NC(=O)[C@H](CC(N)=O)NC(=O)[C@H](Cc1c[nH]c2ccccc12)NC(=O)[C@H](CCC(=O)O)NC(=O)[C@H](CCCCN)NC(=O)[C@@H]1CCCN1C(=O)[C@H](CO)NC(=O)[C@H](C)NC(=O)[C@H](CC(=O)O)NC(=O)[C@H](CCC(=O)O)NC(=O)CNC(=O)[C@@H]1CCCN1C(=O)[C@H](CCCCNC(=O)CC[C@H](NC(=O)CC[C@H](NC(=O)CCCCCCCCCCCCCCCCC(=O)O)C(=O)O)C(=O)O)NC(=O)[C@H](CCC(=O)O)NC(=O)[C@@H]1CCCN1C(=O)[C@H](CCCCN)NC(=O)[C@@H]1CCCN1)C(=O)N[C@@H](CCCNC(=N)N)C(=O)N[C@@H](Cc1c[nH]cn1)C(=O)N[C@@H](Cc1ccc(O)cc1)C(=O)N[C@@H](CC(C)C)C(=O)N[C@@H](CC(N)=O)C(=O)N[C@@H](Cc1c[nH]c2ccccc12)C(=O)N[C@@H](CC(C)C)C(=O)N[C@H](C(=O)N[C@@H](CCCNC(=N)N)C(=O)N[C@@H](CCC(N)=O)C(=O)N[C@@H](CCCNC(=N)N)C(=O)N[C@@H](Cc1ccccc1)C(N)=O)[C@@H](C)O
As for B4, in the test with NPY5R, the “NPY5R pEC50” value is 8.4 -Log(EC50, M).

B5: Compound A50 (peptide)
peptide: PKPEAPGKDASPEEWNRYYADLRHYLNWLTRK([γGlu-γGlu-C20 diacid])RF-NH2
modifications: N-terminus assumed
SMILES: CC(C)C[C@H](NC(=O)[C@H](CC(=O)O)NC(=O)[C@H](C)NC(=O)[C@H](Cc1ccc(O)cc1)NC(=O)[C@H](Cc1ccc(O)cc1)NC(=O)[C@H](CCCNC(=N)N)NC(=O)[C@H](CC(N)=O)NC(=O)[C@H](Cc1c[nH]c2ccccc12)NC(=O)[C@H](CCC(=O)O)NC(=O)[C@H](CCC(=O)O)NC(=O)[C@@H]1CCCN1C(=O)[C@H](CO)NC(=O)[C@H](C)NC(=O)[C@H](CC(=O)O)NC(=O)[C@H](CCCCN)NC(=O)CNC(=O)[C@@H]1CCCN1C(=O)[C@H](C)NC(=O)[C@H](CCC(=O)O)NC(=O)[C@@H]1CCCN1C(=O)[C@H](CCCCN)NC(=O)[C@@H]1CCCN1)C(=O)N[C@@H](CCCNC(=N)N)C(=O)N[C@@H](Cc1c[nH]cn1)C(=O)N[C@@H](Cc1ccc(O)cc1)C(=O)N[C@@H](CC(C)C)C(=O)N[C@@H](CC(N)=O)C(=O)N[C@@H](Cc1c[nH]c2ccccc12)C(=O)N[C@@H](CC(C)C)C(=O)N[C@H](C(=O)N[C@@H](CCCNC(=N)N)C(=O)N[C@@H](CCCCNC(=O)CC[C@H](NC(=O)CC[C@H](NC(=O)CCCCCCCCCCCCCCCCCCC(=O)O)C(=O)O)C(=O)O)C(=O)N[C@@H](CCCNC(=N)N)C(=O)N[C@@H](Cc1ccccc1)C(N)=O)[C@@H](C)O
For B5, in the test with NPY2R, the “NPY2R pEC50” value is 6 -Log(EC50, M). Moreover, the “NPY5R pEC50” value in the test with NPY5R is 6 -Log(EC50, M).
Consider PKPEAPGK([γGlu-γGlu-C20 diacid])DASPEEWKRYYEDLRHYLNWLTRQRF-NH2 (lactam 16-20) [Compound A43], for which, in the test with NPY2R, the “NPY2R pEC50” value was 10.5 -Log(EC50, M). For the same molecule, in the test with NPY5R, the “NPY5R pEC50” value is 8.5 -Log(EC50, M).
PKPEAPGK([γGlu-γGlu-C20 diacid])DASPEEWNRYYADLRHYLNWLTRQR[Phe(4-COOH)]-NH2 [Compound A59]: the “NPY5R pEC50” value in the test with NPY5R was 6 -Log(EC50, M).
As to PKPEAPGK([γGlu-γGlu-C20 diacid])DASPEEWERYYKDLRHYLNWLTRQRF-NH2 (lactam 16-20) [Compound A41], the “NPY2R pEC50” value with NPY2R is 10.5 -Log(EC50, M). For the same molecule, the “NPY5R pEC50” value with NPY5R was 9.3 -Log(EC50, M).
